From patent publication US20210396744A1

How the values were obtained:
IgG [1] = test: sandwich liposome assay: IgG at 10 nM captured by DNA aptamer on silicon supporter, FcIII peptide liposomes bound, washed, UV-triggered release of pH 8.5 buffer, change of surface potential read (SD 0.62 mV)
IgG [2] = test: sandwich liposome assay: IgG at 50 nM captured by DNA aptamer on silicon supporter, FcIII peptide liposomes bound, washed, UV-triggered release of pH 8.5 buffer, change of surface potential read (SD 2.87 mV)

surface potential variation (IgG [1]): -3.75 mV
surface potential variation (IgG [2]): -10.6 mV
Substance: FcIII peptide
